Reference: publication PMC11371640, “Structural deficits in key domains of Shank2 lead to alterations in postsynaptic nanoclusters and to a neurodevelopmental disorder in humans” (Molecular Psychiatry, 2022)
Values joined by “and” are separate entries in the source; they are usually repeats but may differ in a detail not shown here. Equal entries are not always repeated.

What was measured:
[1] = molecular target: T1, His6-SUMO-tagged SH3 to PDZ domains of Shank2 (R520-D727), WT ( (human or rat cDNA cloned), UniProt Q9UPX8-3 520-727); assay: ITC; peptide in the syringe (200 µM; 1 mM for G643R), His6-SUMO SH3-PDZ protein in the cell (20-30 µM); 25 °C; 50 mM Tris-HCl pH 8.0, 100 mM NaCl, 1 mM EDTA; 1:1 binding model; details: both partners purified
T1 construct: Shank2, SH3 to PDZ domains, residues R520-D727; numbers count on: NM_012309.5 (isoform of 1849 residues); Cloned into pET-SUMO; also called His6-SUMO-SH3-PDZ fusion; Shank2 WT; source: E. coli BL21(DE3), purified (Ni-NTA agarose, G-25); not shown: His6, N-terminal, kept; SUMO, N-terminal, kept
T1 sequence (looked up): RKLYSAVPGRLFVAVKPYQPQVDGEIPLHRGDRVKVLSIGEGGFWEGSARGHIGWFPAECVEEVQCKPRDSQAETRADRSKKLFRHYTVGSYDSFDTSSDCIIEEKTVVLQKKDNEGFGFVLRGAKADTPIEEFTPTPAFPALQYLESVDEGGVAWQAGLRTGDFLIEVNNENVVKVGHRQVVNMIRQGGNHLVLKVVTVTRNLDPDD

[2] = molecular target: T2, His6-SUMO-tagged SH3 to PDZ domains of Shank2 (R520-D727), N690S ( (human or rat cDNA cloned), UniProt Q9UPX8-3 520-727, N690S); assay: as above; details: both partners purified
T2 construct: Shank2, SH3 to PDZ domains, residues R520-D727, patient variant N690S; numbers count on: NM_012309.5 (isoform of 1849 residues); source: E. coli BL21(DE3), purified (Ni-NTA agarose, G-25); not shown: His6, N-terminal, kept; SUMO, N-terminal, kept
T2 sequence (looked up): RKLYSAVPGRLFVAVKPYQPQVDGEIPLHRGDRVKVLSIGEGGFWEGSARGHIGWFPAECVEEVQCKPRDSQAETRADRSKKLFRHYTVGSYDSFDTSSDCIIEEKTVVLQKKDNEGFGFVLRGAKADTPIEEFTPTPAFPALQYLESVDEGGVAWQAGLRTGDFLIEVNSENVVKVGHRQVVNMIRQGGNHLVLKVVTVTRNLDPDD

[3] = molecular target: T3, His6-SUMO-tagged SH3 to PDZ domains of Shank2 (R520-D727), S610Y ( (human or rat cDNA cloned), UniProt Q9UPX8-3 520-727, S610Y); assay: as above; details: both partners purified
T3 construct: Shank2, SH3 to PDZ domains, residues R520-D727, patient variant S610Y; numbers count on: NM_012309.5 (isoform of 1849 residues); source: E. coli BL21(DE3), purified (Ni-NTA agarose, G-25); not shown: His6, N-terminal, kept; SUMO, N-terminal, kept
T3 sequence (looked up): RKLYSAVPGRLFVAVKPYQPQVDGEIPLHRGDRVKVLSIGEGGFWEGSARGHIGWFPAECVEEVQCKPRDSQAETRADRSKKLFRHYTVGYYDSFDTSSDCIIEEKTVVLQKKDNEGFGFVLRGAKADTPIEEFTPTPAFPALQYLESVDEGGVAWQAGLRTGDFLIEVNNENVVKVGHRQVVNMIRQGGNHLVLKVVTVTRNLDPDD

[4] = molecular target: T4, His6-SUMO-tagged SH3 to PDZ domains of Shank2 (R520-D727), G643R ( (human or rat cDNA cloned), UniProt Q9UPX8-3 520-727, G643R); assay: as above; details: both partners purified
T4 construct: Shank2, SH3 to PDZ domains, residues R520-D727, patient variant G643R; numbers count on: NM_012309.5 (isoform of 1849 residues); also called G643R mutant Shank2; G643R variant; source: E. coli BL21(DE3), purified (Ni-NTA agarose, G-25); not shown: His6, N-terminal, kept; SUMO, N-terminal, kept
T4 sequence (looked up): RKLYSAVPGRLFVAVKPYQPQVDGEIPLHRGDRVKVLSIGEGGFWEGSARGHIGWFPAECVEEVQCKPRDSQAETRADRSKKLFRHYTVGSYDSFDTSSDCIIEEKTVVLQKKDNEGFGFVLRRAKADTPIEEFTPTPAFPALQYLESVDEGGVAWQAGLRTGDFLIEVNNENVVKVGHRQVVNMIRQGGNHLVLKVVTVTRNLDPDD

[5] = molecular target: T5, His6-SUMO-tagged SH3 to PDZ domains of Shank2 (R520-D727), V717F ( (human or rat cDNA cloned), UniProt Q9UPX8-3 520-727, V717F); assay: as above; details: both partners purified
T5 construct: Shank2, SH3 to PDZ domains, residues R520-D727, patient variant V717F; numbers count on: NM_012309.5 (isoform of 1849 residues); source: E. coli BL21(DE3), purified (Ni-NTA agarose, G-25); not shown: His6, N-terminal, kept; SUMO, N-terminal, kept
T5 sequence (looked up): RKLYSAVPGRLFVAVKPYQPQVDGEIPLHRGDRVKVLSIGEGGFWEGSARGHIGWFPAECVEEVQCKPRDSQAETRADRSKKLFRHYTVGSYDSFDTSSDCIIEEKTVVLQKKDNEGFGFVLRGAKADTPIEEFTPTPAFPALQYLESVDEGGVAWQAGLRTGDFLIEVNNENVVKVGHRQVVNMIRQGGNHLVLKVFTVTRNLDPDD

[6] = molecular target: T6, His6-SUMO-tagged SH3 to PDZ domains of Shank2 (R520-D727), V717F ( (human or rat cDNA cloned), UniProt Q9UPX8-3 520-727, V717F); assay: ITC
T6 sequence: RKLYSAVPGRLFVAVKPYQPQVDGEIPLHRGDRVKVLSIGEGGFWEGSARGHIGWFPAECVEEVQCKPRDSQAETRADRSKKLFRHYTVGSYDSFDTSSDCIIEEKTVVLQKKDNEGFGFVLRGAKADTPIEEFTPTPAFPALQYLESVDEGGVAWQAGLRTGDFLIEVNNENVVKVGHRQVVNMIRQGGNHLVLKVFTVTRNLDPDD

[7] = molecular target: T7, His6-SUMO-tagged SH3 to PDZ domains of Shank2 (R520-D727), G643R ( (human or rat cDNA cloned), UniProt Q9UPX8-3 520-727, G643R); assay: ITC
T7 sequence: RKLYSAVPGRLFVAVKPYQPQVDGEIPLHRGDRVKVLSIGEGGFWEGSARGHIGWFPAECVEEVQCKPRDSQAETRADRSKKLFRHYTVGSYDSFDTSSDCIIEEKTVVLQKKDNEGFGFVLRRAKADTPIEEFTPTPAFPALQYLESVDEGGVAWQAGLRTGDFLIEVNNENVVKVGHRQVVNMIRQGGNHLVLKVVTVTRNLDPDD

[8] = molecular target: T8, His6-SUMO-tagged SH3 to PDZ domains of Shank2 (R520-D727), N690S ( (human or rat cDNA cloned), UniProt Q9UPX8-3 520-727, N690S); assay: ITC
T8 sequence: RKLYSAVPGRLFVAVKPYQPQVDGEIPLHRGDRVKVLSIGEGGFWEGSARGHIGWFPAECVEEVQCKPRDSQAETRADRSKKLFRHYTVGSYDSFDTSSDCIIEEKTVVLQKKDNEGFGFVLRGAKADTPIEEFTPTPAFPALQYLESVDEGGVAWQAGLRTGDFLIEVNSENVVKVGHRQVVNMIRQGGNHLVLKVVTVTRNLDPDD

[9] = molecular target: T9, His6-SUMO-tagged SH3 to PDZ domains of Shank2 (R520-D727), WT ( (human or rat cDNA cloned), UniProt Q9UPX8-3 520-727); assay: ITC
T9 chain: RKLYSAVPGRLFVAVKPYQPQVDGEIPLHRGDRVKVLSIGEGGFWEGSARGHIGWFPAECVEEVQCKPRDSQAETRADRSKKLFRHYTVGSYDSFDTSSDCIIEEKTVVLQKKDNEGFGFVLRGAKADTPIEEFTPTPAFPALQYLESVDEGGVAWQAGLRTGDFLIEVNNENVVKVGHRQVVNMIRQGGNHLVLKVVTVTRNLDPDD

[10] = molecular target: T10, His6-SUMO-tagged SH3 to PDZ domains of Shank2 (R520-D727), S610Y ( (human or rat cDNA cloned), UniProt Q9UPX8-3 520-727, S610Y); assay: ITC
T10 sequence: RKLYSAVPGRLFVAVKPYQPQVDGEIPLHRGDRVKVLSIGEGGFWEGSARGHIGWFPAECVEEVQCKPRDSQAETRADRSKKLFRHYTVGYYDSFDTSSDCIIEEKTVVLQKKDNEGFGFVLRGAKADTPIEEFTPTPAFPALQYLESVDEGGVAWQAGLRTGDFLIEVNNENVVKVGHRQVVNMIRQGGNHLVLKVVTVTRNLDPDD

B1: synthetic peptide of the complete PDZ ligand of GKAP (last 15 amino acids of GKAP/SAPAP1) (peptide)
peptide: ADSIEIYIPEAQTRL
notes: GKAP/SAPAP1, the last 15 amino acids (complete PDZ ligand), free N- and C-terminus; also called GKAP peptide; source: synthetic peptide (Genscript)
Question: Does B1 bind [1]?
Answer: Result: binds

Question: Does B1 bind [2]?
Answer: Result: binds

Question: Does B1 bind [3]?
Answer: Result: binds

Question: What about the “fold reduction of affinity against WT” value [4] of the same binder?
Answer: The value was > 70 fold.

Question: Does B1 bind [5]?
Answer: Result: binds

Question: What about the Kd [6] of the same binder?
Answer: The Kd was 848 nM.

Question: What about the Kd [7] of the same binder?
Answer: Its Kd is 22000 nM and 22500 nM.

Question: What about the Kd [8] of the same binder?
Answer: Its Kd is 411 nM.

Question: What about the Kd [9] of the same binder?
Answer: Its Kd is 319 nM and 320 nM.

Question: What about the Kd [10] of the same binder?
Answer: The Kd was 910 nM.
